Substitutions are numbered along the chain they refer to. Names may count otherwise.
Legend:
[1] = biological target: His6-tagged integrin α2A domain, wild type (human) (UniProt P17301); test: ELISA; α2A wt or mutants (10 μg/ml) captured on immobilised mAb JA218 (2.5 μg/ml), TBS/Mg; titrated with RC; bound RC fixed and detected with rabbit RC antiserum; Kd by nonlinear regression
[2] = biological target: α2A domain D219A mutant (human) (UniProt P17301); test: as above
[3] = biological target: α2A domain S214G mutant (human) (UniProt P17301); test: as above
[4] = biological target: α2A domain Y216G mutant (human) (UniProt P17301); test: as above
[5] = biological target: α2A-L2^α1 mutant (loop 2 of α2A replaced by the loop 2 sequence of the integrin α1 A-domain) (human) (UniProt P17301); test: as above
[6] = biological target: His6-tagged integrin α2A domain, wild type (human) (UniProt P17301); test: ELISA; His-tagged α2A domain (wt or mutant) coated on microtiter wells at 10 μg/ml in TBS/Mg pH 7.4; titrated with RCαβγδ or RCγδ without and with NPS-modified tryptophans in 1% BSA/TBS, 2 mM MgCl2, 1.5 h; bound RC fixed with glutaraldehyde and detected with rabbit RC antiserum, OD 405 nm; Kd by nonlinear regression
[7] = biological target: disulfide-locked α2A domain, “closed” conformation (C150A, C270A, K168C, A325C) (human) (UniProt P17301); test: as above
[8] = biological target: T1, rhodocetin heterotetramer (RCαβγδ); test: ELISA; conditions: chain shown with the change; for percent of parent (% of wild type α2A): read at the highest rhodocetin concentration (about 70 nM), α2A captured by immobilized antibody JA218
T1 chain 1: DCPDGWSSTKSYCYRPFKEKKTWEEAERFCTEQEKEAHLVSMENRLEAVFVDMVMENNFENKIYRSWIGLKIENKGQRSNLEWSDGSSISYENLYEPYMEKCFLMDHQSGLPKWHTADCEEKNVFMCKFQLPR
T1 chain 2: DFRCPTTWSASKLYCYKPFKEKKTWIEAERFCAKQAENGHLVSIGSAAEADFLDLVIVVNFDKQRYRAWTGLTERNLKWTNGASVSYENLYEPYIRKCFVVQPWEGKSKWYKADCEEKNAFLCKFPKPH
T1 chain 3: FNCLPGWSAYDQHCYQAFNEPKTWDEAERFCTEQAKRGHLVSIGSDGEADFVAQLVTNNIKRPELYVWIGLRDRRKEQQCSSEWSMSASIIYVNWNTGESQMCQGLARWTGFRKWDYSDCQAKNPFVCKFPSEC
T1 chain 4: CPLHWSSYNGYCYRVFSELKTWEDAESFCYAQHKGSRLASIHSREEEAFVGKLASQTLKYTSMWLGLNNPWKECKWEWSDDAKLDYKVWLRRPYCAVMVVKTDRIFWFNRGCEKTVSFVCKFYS

Sequence of UniProt P17301 (P17301 142-337 Y216G): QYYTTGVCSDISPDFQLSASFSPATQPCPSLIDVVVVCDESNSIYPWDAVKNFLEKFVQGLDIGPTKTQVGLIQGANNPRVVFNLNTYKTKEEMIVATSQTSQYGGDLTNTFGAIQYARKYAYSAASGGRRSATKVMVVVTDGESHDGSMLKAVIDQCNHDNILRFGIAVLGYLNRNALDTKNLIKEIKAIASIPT

“rhodocetin heterotetramer (RCαβγδ) (complex)” showed a Kd [1] of 0.76 nM, a Kd [2] of 5.2 nM and a Kd [3] of 0.77 nM. It also gave a Kd [4] of 1.98 nM, a Kd [5] of 2.7 nM and a Kd [6] of 0.29 nM. It also gave a Kd [7] of 0.21 nM.

B1: His6-tagged integrin α2A domain, wild type, P17301 C150A; C270A; K168C; E318C (protein)
chain: SLIDVVVVADESNSIYPWDAVKNFLECFVQGLDIGPTKTQVGLIQYANNPRVVFNLNTYKTKEEMIVATSQTSQYGGDLTNTFGAIQYARKYAYSAASGGRRSATKVMVVVTDGESHDGSMLKAVIDQANHDNILRFGIAVLGYLNRNALDTKNLIKEIKAIASIPTERYFFNVSDCAALLEKAGTLGEQIFSIEG
B1 showed a response ([8]; read at the highest RCαβγδ concentration (about 23 nM), α2A immobilized at 10 μg/ml, parent: est. 2.6, read off a plot) of 0.38 OD405nm and a Kd ([8]; α2A immobilized to microtiter plates at 10 μg/ml, titrated with RCαβγδ, OD405) of 2.64 nM.

B2: His6-tagged integrin α2A domain, wild type, P17301 G217K (protein)
chain: B1 chain with A9C, C27K, G76K, A129C, C177E
Molecule B2 has a percent of parent (% of wild type α2A) ([8]; read off a plot) of 11.

B3: His6-tagged integrin α2A domain, wild type, P17301 G218L (protein)
chain: B1 chain with A9C, C27K, G77L, A129C, C177E
Molecule B3 has a percent of parent (% of wild type α2A) ([8]; read off a plot) of 12.
